Data reported in patent EP1878438A2.

Experiments:
[1] = target: T1, GnRH receptor of rat pituitary membranes (rat) (UniProt P30969); assay: radioligand displacement on rat pituitary membranes, equimolar concentrations
T1 sequence (looked up): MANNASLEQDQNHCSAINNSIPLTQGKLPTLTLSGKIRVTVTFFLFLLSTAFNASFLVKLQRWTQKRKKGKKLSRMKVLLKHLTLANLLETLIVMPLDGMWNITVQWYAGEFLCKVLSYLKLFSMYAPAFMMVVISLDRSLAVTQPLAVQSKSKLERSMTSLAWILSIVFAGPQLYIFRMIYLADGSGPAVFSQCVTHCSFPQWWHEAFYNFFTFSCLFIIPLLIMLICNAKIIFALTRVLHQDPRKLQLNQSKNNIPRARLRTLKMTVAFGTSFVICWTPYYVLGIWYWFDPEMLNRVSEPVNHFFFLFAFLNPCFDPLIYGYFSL

[2] = target: LH receptors on bovine granulosa cells and bovine small luteal cells (bovine) (UniProt Q28005); assay: cell-based or functional assay
UniProt Q28005, sequence (Q28005 27-701): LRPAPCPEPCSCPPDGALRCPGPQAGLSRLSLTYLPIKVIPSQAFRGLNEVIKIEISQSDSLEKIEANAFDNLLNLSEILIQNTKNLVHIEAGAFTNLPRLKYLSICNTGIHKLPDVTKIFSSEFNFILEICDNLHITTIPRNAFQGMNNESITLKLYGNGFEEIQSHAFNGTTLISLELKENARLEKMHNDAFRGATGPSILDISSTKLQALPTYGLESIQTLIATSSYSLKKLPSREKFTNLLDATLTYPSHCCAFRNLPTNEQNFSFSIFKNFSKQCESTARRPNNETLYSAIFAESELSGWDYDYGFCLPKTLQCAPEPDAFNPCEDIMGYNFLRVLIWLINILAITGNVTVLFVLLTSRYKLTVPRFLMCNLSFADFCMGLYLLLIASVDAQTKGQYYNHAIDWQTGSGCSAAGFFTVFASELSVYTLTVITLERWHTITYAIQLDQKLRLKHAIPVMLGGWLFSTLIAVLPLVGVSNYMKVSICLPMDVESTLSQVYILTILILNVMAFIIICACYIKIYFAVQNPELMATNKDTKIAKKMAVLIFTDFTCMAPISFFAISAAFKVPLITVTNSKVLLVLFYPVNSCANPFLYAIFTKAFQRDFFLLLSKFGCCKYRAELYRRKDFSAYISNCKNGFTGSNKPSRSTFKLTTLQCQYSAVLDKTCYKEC

| cpm displaced relative to native GnRH [1] [%] | Substance | cell killing of bovine small luteal cells after 22 hr (Trypan Blue exclusion) (fold vs hecate alone) [2] |
| --- | --- | --- |
| 187 | D-Lys6GnRH (peptide) | – |
| – | hecate-bLH conjugate (peptide) | 2 |
